{"source": "patent US20210324359A1", "about": "“USE OF GRAM-NEGATIVE LYSIN-ANTIMICROBIAL PEPTIDE (AMP) POLYPEPTIDE CONSTRUCTS IN TREATING ENDOCARDITIS” (priority 2020, published 2021)", "molecules": {"B1": {"name": "GN370: lysin-AMP construct: MIDR, FIRL and NPTH moieties N-terminal to GN202 lysin (SEQ ID NO: 44) (protein)", "chain": "MIDRFIRLNPTHGPRRPRRPGRRAPVRTSQRGIDLIKSFEGLRLSAYQDSVGVWTIGYGTTRGVTRYMTITVEQAERMLSNDIQRFEPELDRLAKVPLNQNQWDALMSFVYNLGAANLASSTLLDLLNKGDYQGAADQFPHWVNAGGKRLDGLVKRRAAERALFLEPLS"}}, "key": {"[1]": {"tested_on": "P. aeruginosa strain PA453", "assay": "Time-kill assay of GN370 in animal blood (Table 34)", "assay_type": "cell-based, Pseudomonas aeruginosa", "details": "for Log10 CFU/mL of P. aeruginosa: limit of detection 1.6", "source_text": "The results are shown below in Table 34, wherein survival is reported as Log10 CFU/mL and wherein the limit of detection was 1.6 Log10 CFU/mL."}, "P. aeruginosa PA20": {"tested_on": "P. aeruginosa PA20", "assay": "MIC of GN370 and meropenem against the infecting strain", "assay_type": "cell-based, Pseudomonas aeruginosa"}}, "data": [{"molecule": "B1", "values": [{"measurement": "Log10 CFU/mL of P. aeruginosa", "setting": "[1]; Dog blood, 24 hours, GN370 20 μg/mL", "value": 1.6, "unit": "Log10 CFU/mL"}, {"measurement": "Log10 CFU/mL of P. aeruginosa", "setting": "[1]; Dog blood, 24 hours, GN370 50 μg/mL", "value": 1.6, "unit": "Log10 CFU/mL"}, {"measurement": "Log10 CFU/mL of P. aeruginosa", "setting": "[1]; Dog blood, 24 hours, GN370 100 μg/mL", "value": 1.6, "unit": "Log10 CFU/mL"}, {"measurement": "Log10 CFU/mL of P. aeruginosa", "setting": "[1]; Dog blood, 24 hours, GN370 200 μg/mL", "value": 1.6, "unit": "Log10 CFU/mL"}, {"measurement": "Log10 CFU/mL of P. aeruginosa", "setting": "[1]; Human blood, 2 hours, GN370 4 μg/mL", "value": 1.6, "unit": "Log10 CFU/mL"}, {"measurement": "Log10 CFU/mL of P. aeruginosa", "setting": "[1]; Human blood, 2 hours, GN370 20 μg/mL", "value": 1.6, "unit": "Log10 CFU/mL"}, {"measurement": "Log10 CFU/mL of P. aeruginosa", "setting": "[1]; Human blood, 2 hours, GN370 50 μg/mL", "value": 1.6, "unit": "Log10 CFU/mL"}, {"measurement": "Log10 CFU/mL of P. aeruginosa", "setting": "[1]; Human blood, 2 hours, GN370 100 μg/mL", "value": 1.6, "unit": "Log10 CFU/mL"}, {"measurement": "Log10 CFU/mL of P. aeruginosa", "setting": "[1]; Human blood, 2 hours, GN370 200 μg/mL", "value": 1.6, "unit": "Log10 CFU/mL"}, {"measurement": "Log10 CFU/mL of P. aeruginosa", "setting": "[1]; Human blood, 4 hours, GN370 4 μg/mL", "value": 1.6, "unit": "Log10 CFU/mL"}, {"measurement": "Log10 CFU/mL of P. aeruginosa", "setting": "[1]; Human blood, 4 hours, GN370 20 μg/mL", "value": 1.6, "unit": "Log10 CFU/mL"}, {"measurement": "Log10 CFU/mL of P. aeruginosa", "setting": "[1]; Human blood, 4 hours, GN370 50 μg/mL", "value": 1.6, "unit": "Log10 CFU/mL"}, {"measurement": "Log10 CFU/mL of P. aeruginosa", "setting": "[1]; Human blood, 4 hours, GN370 100 μg/mL", "value": 1.6, "unit": "Log10 CFU/mL"}, {"measurement": "Log10 CFU/mL of P. aeruginosa", "setting": "[1]; Human blood, 4 hours, GN370 200 μg/mL", "value": 1.6, "unit": "Log10 CFU/mL"}, {"measurement": "Log10 CFU/mL of P. aeruginosa", "setting": "[1]; Human blood, 24 hours, GN370 4 μg/mL", "value": 4.1, "unit": "Log10 CFU/mL"}, {"measurement": "Log10 CFU/mL of P. aeruginosa", "setting": "[1]; Human blood, 24 hours, GN370 20 μg/mL", "value": 1.6, "unit": "Log10 CFU/mL"}, {"measurement": "Log10 CFU/mL of P. aeruginosa", "setting": "[1]; Human blood, 24 hours, GN370 50 μg/mL", "value": 1.6, "unit": "Log10 CFU/mL"}, {"measurement": "Log10 CFU/mL of P. aeruginosa", "setting": "[1]; Human blood, 24 hours, GN370 100 μg/mL", "value": 1.6, "unit": "Log10 CFU/mL"}, {"measurement": "Log10 CFU/mL of P. aeruginosa", "setting": "[1]; Human blood, 24 hours, GN370 200 μg/mL", "value": 1.6, "unit": "Log10 CFU/mL"}, {"measurement": "Log10 CFU/mL of P. aeruginosa", "setting": "[1]; Rabbit blood, 2 hours, GN370 4 μg/mL", "value": 1.6, "unit": "Log10 CFU/mL"}, {"measurement": "Log10 CFU/mL of P. aeruginosa", "setting": "[1]; Rabbit blood, 2 hours, GN370 20 μg/mL", "value": 1.6, "unit": "Log10 CFU/mL"}, {"measurement": "Log10 CFU/mL of P. aeruginosa", "setting": "[1]; Rabbit blood, 2 hours, GN370 50 μg/mL", "value": 1.6, "unit": "Log10 CFU/mL"}, {"measurement": "Log10 CFU/mL of P. aeruginosa", "setting": "[1]; Rabbit blood, 2 hours, GN370 100 μg/mL", "value": 1.6, "unit": "Log10 CFU/mL"}, {"measurement": "Log10 CFU/mL of P. aeruginosa", "setting": "[1]; Rabbit blood, 2 hours, GN370 200 μg/mL", "value": 1.6, "unit": "Log10 CFU/mL"}, {"measurement": "Log10 CFU/mL of P. aeruginosa", "setting": "[1]; Rabbit blood, 4 hours, GN370 4 μg/mL", "value": 3.0, "unit": "Log10 CFU/mL"}, {"measurement": "Log10 CFU/mL of P. aeruginosa", "setting": "[1]; Rabbit blood, 4 hours, GN370 20 μg/mL", "value": 1.6, "unit": "Log10 CFU/mL"}, {"measurement": "Log10 CFU/mL of P. aeruginosa", "setting": "[1]; Rabbit blood, 4 hours, GN370 50 μg/mL", "value": 1.6, "unit": "Log10 CFU/mL"}, {"measurement": "Log10 CFU/mL of P. aeruginosa", "setting": "[1]; Rabbit blood, 4 hours, GN370 100 μg/mL", "value": 1.6, "unit": "Log10 CFU/mL"}, {"measurement": "Log10 CFU/mL of P. aeruginosa", "setting": "[1]; Rabbit blood, 4 hours, GN370 200 μg/mL", "value": 1.6, "unit": "Log10 CFU/mL"}, {"measurement": "Log10 CFU/mL of P. aeruginosa", "setting": "[1]; Rabbit blood, 24 hours, GN370 4 μg/mL", "value": 4.9, "unit": "Log10 CFU/mL"}, {"measurement": "Log10 CFU/mL of P. aeruginosa", "setting": "[1]; Rabbit blood, 24 hours, GN370 20 μg/mL", "value": 1.6, "unit": "Log10 CFU/mL"}, {"measurement": "Log10 CFU/mL of P. aeruginosa", "setting": "[1]; Rabbit blood, 24 hours, GN370 50 μg/mL", "value": 1.6, "unit": "Log10 CFU/mL"}, {"measurement": "Log10 CFU/mL of P. aeruginosa", "setting": "[1]; Rabbit blood, 24 hours, GN370 100 μg/mL", "value": 1.6, "unit": "Log10 CFU/mL"}, {"measurement": "Log10 CFU/mL of P. aeruginosa", "setting": "[1]; Rabbit blood, 24 hours, GN370 200 μg/mL", "value": 1.6, "unit": "Log10 CFU/mL"}, {"measurement": "Log10 CFU/mL of P. aeruginosa", "setting": "[1]; Rat blood, 2 hours, GN370 4 μg/mL", "value": 5.9, "unit": "Log10 CFU/mL"}, {"measurement": "Log10 CFU/mL of P. aeruginosa", "setting": "[1]; Rat blood, 2 hours, GN370 20 μg/mL", "value": 6.1, "unit": "Log10 CFU/mL"}, {"measurement": "Log10 CFU/mL of P. aeruginosa", "setting": "[1]; Rat blood, 2 hours, GN370 50 μg/mL", "value": 1.6, "unit": "Log10 CFU/mL"}, {"measurement": "Log10 CFU/mL of P. aeruginosa", "setting": "[1]; Rat blood, 2 hours, GN370 100 μg/mL", "value": 1.6, "unit": "Log10 CFU/mL"}, {"measurement": "Log10 CFU/mL of P. aeruginosa", "setting": "[1]; Rat blood, 2 hours, GN370 200 μg/mL", "value": 1.6, "unit": "Log10 CFU/mL"}, {"measurement": "Log10 CFU/mL of P. aeruginosa", "setting": "[1]; Rat blood, 4 hours, GN370 4 μg/mL", "value": 7.0, "unit": "Log10 CFU/mL"}, {"measurement": "Log10 CFU/mL of P. aeruginosa", "setting": "[1]; Rat blood, 4 hours, GN370 20 μg/mL", "value": 6.2, "unit": "Log10 CFU/mL"}, {"measurement": "Log10 CFU/mL of P. aeruginosa", "setting": "[1]; Rat blood, 4 hours, GN370 50 μg/mL", "value": 3.7, "unit": "Log10 CFU/mL"}, {"measurement": "Log10 CFU/mL of P. aeruginosa", "setting": "[1]; Rat blood, 4 hours, GN370 100 μg/mL", "value": 1.6, "unit": "Log10 CFU/mL"}, {"measurement": "Log10 CFU/mL of P. aeruginosa", "setting": "[1]; Rat blood, 4 hours, GN370 200 μg/mL", "value": 1.6, "unit": "Log10 CFU/mL"}, {"measurement": "Log10 CFU/mL of P. aeruginosa", "setting": "[1]; Rat blood, 24 hours, GN370 4 μg/mL", "value": 7.9, "unit": "Log10 CFU/mL"}, {"measurement": "Log10 CFU/mL of P. aeruginosa", "setting": "[1]; Rat blood, 24 hours, GN370 20 μg/mL", "value": 7.8, "unit": "Log10 CFU/mL"}, {"measurement": "Log10 CFU/mL of P. aeruginosa", "setting": "[1]; Rat blood, 24 hours, GN370 50 μg/mL", "value": 7.6, "unit": "Log10 CFU/mL"}, {"measurement": "Log10 CFU/mL of P. aeruginosa", "setting": "[1]; Rat blood, 24 hours, GN370 100 μg/mL", "value": 3.6, "unit": "Log10 CFU/mL"}, {"measurement": "Log10 CFU/mL of P. aeruginosa", "setting": "[1]; Rat blood, 24 hours, GN370 200 μg/mL", "value": 1.6, "unit": "Log10 CFU/mL"}, {"measurement": "activity in dog, human, and rabbit blood (time-kill)", "setting": "[1]; all times, 20-200 μg/mL, strain PA453", "value": "high activity"}, {"measurement": "activity in rat blood (time-kill)", "setting": "[1]; majority of the times and concentrations tested, strain PA453", "value": "poor or no activity"}, {"measurement": "MIC of P. aeruginosa PA20", "setting": "P. aeruginosa PA20", "value": 2, "unit": "µg/mL"}, {"measurement": "MIC against P. aeruginosa", "setting": "P. aeruginosa PA20; GN370 value in rabbit serum", "value": 2, "unit": "µg/mL"}]}]}
